Measurements: the supplement of paper PMC12855868

B1: library; numbered along this chain (parent)
chain: MAAAGGARLLRAASAVLGGPAGRWLHHAGSRAGSSGLLRNRGPGGSAEASRSLSVSARARSSSEDKITVHFINRDGETLTTKGKVGDSLLDVVVENNLDIDGFGACEGTLACSTCHLIFEDHIYEKLDAITDEENDMLDLAYGLTDRSRLGCQICLTKSMDNMTVRVPETVADARQSIDVGKTS

Variants of: B1
Test: scaled log2 fold change in cell abundance, elesclomol vs control (0 = silent mean, 1 = nonsense mean) (scaled log2 ratio); higher = higher viability under elesclomol (loss of FDX1 cuproptosis function)
Settings: glucose 10 mM
Method: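 Deep mutational scan of full-length human FDX1: a pooled saturation-mutagenesis ORF library (every residue 2-184 mutated to all 19 amino acids plus stop, and silent codons where available) was expressed by lentivirus in FDX1-knockout ABC1 (14 days) or HEK293T (11 days) cells grown with elesclomol (ES) or DMSO control. Variant abundance came from ORF sequencing. The log2 fold change (ES vs control, mean of duplicates) was centred on the silent-variant mean (0) and scaled to the nonsense-variant mean (1). Higher values mean greater viability under ES, i.e. loss of FDX1 function in cuproptosis.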

[1] = with ABC1 FDX1 KO, elesclomol 5 nM, 14 days
[2] = with HEK293T FDX1 KO, elesclomol 40 nM, 11 days
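Also: variant abundance is its share of total variant reads in each endpoint sample, from next-generation sequencing of the integrated ORF PCR-amplified out of genomic DNA.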

Variant	scaled log2 fold change [1]	scaled log2 fold change [2]
MAAAGGARLLRAASAVLGGPAGRWLHHAGSRAGSSGLLRNRGPGGSAEASKSLSVSARARSSSEDKITVHFINRDGETLTTKGKVGDSLLDVVVENNLDIDGFGACEGTLACSTCHLIFEDHIYEKLDAITDEENDMLDLAYGLTDRSRLGCQICLTKSMDNMTVRVPETVADARQSIDVGKTS	-0.103	-1.33
MAAAGGARLLRAASAVLGGPAGRWLHHAGSRAGSSGLLRNRGPGGSAEASCSLSVSARARSSSEDKITVHFINRDGETLTTKGKVGDSLLDVVVENNLDIDGFGACEGTLACSTCHLIFEDHIYEKLDAITDEENDMLDLAYGLTDRSRLGCQICLTKSMDNMTVRVPETVADARQSIDVGKTS	0.374	-0.169
MAAAGGARLLRAASAVLGGPAGRWLHHAGSRAGSSGLLRNRGPGGSAEASDSLSVSARARSSSEDKITVHFINRDGETLTTKGKVGDSLLDVVVENNLDIDGFGACEGTLACSTCHLIFEDHIYEKLDAITDEENDMLDLAYGLTDRSRLGCQICLTKSMDNMTVRVPETVADARQSIDVGKTS	-0.0949	-0.181
MAAAGGARLLRAASAVLGGPAGRWLHHAGSRAGSSGLLRNRGPGGSAEASGSLSVSARARSSSEDKITVHFINRDGETLTTKGKVGDSLLDVVVENNLDIDGFGACEGTLACSTCHLIFEDHIYEKLDAITDEENDMLDLAYGLTDRSRLGCQICLTKSMDNMTVRVPETVADARQSIDVGKTS	0.508	-0.712
MAAAGGARLLRAASAVLGGPAGRWLHHAGSRAGSSGLLRNRGPGGSAEASLSLSVSARARSSSEDKITVHFINRDGETLTTKGKVGDSLLDVVVENNLDIDGFGACEGTLACSTCHLIFEDHIYEKLDAITDEENDMLDLAYGLTDRSRLGCQICLTKSMDNMTVRVPETVADARQSIDVGKTS	0.0529	-0.247
MAAAGGARLLRAASAVLGGPAGRWLHHAGSRAGSSGLLRNRGPGGSAEASESLSVSARARSSSEDKITVHFINRDGETLTTKGKVGDSLLDVVVENNLDIDGFGACEGTLACSTCHLIFEDHIYEKLDAITDEENDMLDLAYGLTDRSRLGCQICLTKSMDNMTVRVPETVADARQSIDVGKTS	-0.316	-0.168
MAAAGGARLLRAASAVLGGPAGRWLHHAGSRAGSSGLLRNRGPGGSAEASHSLSVSARARSSSEDKITVHFINRDGETLTTKGKVGDSLLDVVVENNLDIDGFGACEGTLACSTCHLIFEDHIYEKLDAITDEENDMLDLAYGLTDRSRLGCQICLTKSMDNMTVRVPETVADARQSIDVGKTS	-0.0671	-0.14
MAAAGGARLLRAASAVLGGPAGRWLHHAGSRAGSSGLLRNRGPGGSAEASFSLSVSARARSSSEDKITVHFINRDGETLTTKGKVGDSLLDVVVENNLDIDGFGACEGTLACSTCHLIFEDHIYEKLDAITDEENDMLDLAYGLTDRSRLGCQICLTKSMDNMTVRVPETVADARQSIDVGKTS	0.269	0.664
MAAAGGARLLRAASAVLGGPAGRWLHHAGSRAGSSGLLRNRGPGGSAEASASLSVSARARSSSEDKITVHFINRDGETLTTKGKVGDSLLDVVVENNLDIDGFGACEGTLACSTCHLIFEDHIYEKLDAITDEENDMLDLAYGLTDRSRLGCQICLTKSMDNMTVRVPETVADARQSIDVGKTS	0.176	-0.204
MAAAGGARLLRAASAVLGGPAGRWLHHAGSRAGSSGLLRNRGPGGSAEATRSLSVSARARSSSEDKITVHFINRDGETLTTKGKVGDSLLDVVVENNLDIDGFGACEGTLACSTCHLIFEDHIYEKLDAITDEENDMLDLAYGLTDRSRLGCQICLTKSMDNMTVRVPETVADARQSIDVGKTS	0.208	–
MAAAGGARLLRAASAVLGGPAGRWLHHAGSRAGSSGLLRNRGPGGSAEANRSLSVSARARSSSEDKITVHFINRDGETLTTKGKVGDSLLDVVVENNLDIDGFGACEGTLACSTCHLIFEDHIYEKLDAITDEENDMLDLAYGLTDRSRLGCQICLTKSMDNMTVRVPETVADARQSIDVGKTS	0.219	-0.357
MAAAGGARLLRAASAVLGGPAGRWLHHAGSRAGSSGLLRNRGPGGSAEALRSLSVSARARSSSEDKITVHFINRDGETLTTKGKVGDSLLDVVVENNLDIDGFGACEGTLACSTCHLIFEDHIYEKLDAITDEENDMLDLAYGLTDRSRLGCQICLTKSMDNMTVRVPETVADARQSIDVGKTS	-0.847	–
MAAAGGARLLRAASAVLGGPAGRWLHHAGSRAGSSGLLRNRGPGGSAEAKRSLSVSARARSSSEDKITVHFINRDGETLTTKGKVGDSLLDVVVENNLDIDGFGACEGTLACSTCHLIFEDHIYEKLDAITDEENDMLDLAYGLTDRSRLGCQICLTKSMDNMTVRVPETVADARQSIDVGKTS	-0.433	–
MAAAGGARLLRAASAVLGGPAGRWLHHAGSRAGSSGLLRNRGPGGSAEAWRSLSVSARARSSSEDKITVHFINRDGETLTTKGKVGDSLLDVVVENNLDIDGFGACEGTLACSTCHLIFEDHIYEKLDAITDEENDMLDLAYGLTDRSRLGCQICLTKSMDNMTVRVPETVADARQSIDVGKTS	-0.149	–
MAAAGGARLLRAASAVLGGPAGRWLHHAGSRAGSSGLLRNRGPGGSAEAMRSLSVSARARSSSEDKITVHFINRDGETLTTKGKVGDSLLDVVVENNLDIDGFGACEGTLACSTCHLIFEDHIYEKLDAITDEENDMLDLAYGLTDRSRLGCQICLTKSMDNMTVRVPETVADARQSIDVGKTS	-0.234	–
MAAAGGARLLRAASAVLGGPAGRWLHHAGSRAGSSGLLRNRGPGGSAEAIRSLSVSARARSSSEDKITVHFINRDGETLTTKGKVGDSLLDVVVENNLDIDGFGACEGTLACSTCHLIFEDHIYEKLDAITDEENDMLDLAYGLTDRSRLGCQICLTKSMDNMTVRVPETVADARQSIDVGKTS	0.293	-1.28
MAAAGGARLLRAASAVLGGPAGRWLHHAGSRAGSSGLLRNRGPGGSAEAYRSLSVSARARSSSEDKITVHFINRDGETLTTKGKVGDSLLDVVVENNLDIDGFGACEGTLACSTCHLIFEDHIYEKLDAITDEENDMLDLAYGLTDRSRLGCQICLTKSMDNMTVRVPETVADARQSIDVGKTS	-0.231	0.499
MAAAGGARLLRAASAVLGGPAGRWLHHAGSRAGSSGLLRNRGPGGSAEAPRSLSVSARARSSSEDKITVHFINRDGETLTTKGKVGDSLLDVVVENNLDIDGFGACEGTLACSTCHLIFEDHIYEKLDAITDEENDMLDLAYGLTDRSRLGCQICLTKSMDNMTVRVPETVADARQSIDVGKTS	-0.659	–
MAAAGGARLLRAASAVLGGPAGRWLHHAGSRAGSSGLLRNRGPGGSAEARRSLSVSARARSSSEDKITVHFINRDGETLTTKGKVGDSLLDVVVENNLDIDGFGACEGTLACSTCHLIFEDHIYEKLDAITDEENDMLDLAYGLTDRSRLGCQICLTKSMDNMTVRVPETVADARQSIDVGKTS	-0.0286	0.0212
